Several values for one entry are separate records, joined by “and”; a condition that tells them apart may be missing. Identical values can stand only once.

Here are results for 7 molecules from patent US20220380801A1, “TRIPARTITE SYSTEMS FOR PROTEIN DIMERIZATION AND METHODS OF USE” (priority 2019, published 2022).

B1: PRSIM_33: Tn3 PRSIM binding molecule, SEQ ID NO: 7 (protein)
chain: RLDAPSQIEVKDVTDTTALITWYPPGRWYDDIWYFELTYGIKDVPGDRTTIKLARGDDVYSIGNLKPDTEYEVSLISWGPDRGDRAGSNPAKITFKTGL
modifications: PRSIM_33
B2: PRSIM_67: scFv PRSIM binding molecule, SEQ ID NO: 13 (protein)
scFv: EVQLVQSGAEVKKPGAAVRISCKTSGYVFTSYYVHWVRQAPGQGLEWMGVINPSGGNTNYAQKFQDRVTMTRDTSTTTVYMELSSLMFDDTAVYYCAKRDYGGPLANWGRGTLVTVSSGGGGSGGGGSGGGGSALSYELTQPPSVSEAPRQRVTISCSGSSSNIGNNAVNWYQQLPGKAPKLLIFYDDLLPSGVSDRFSGSKSGTSASLAISGLQSEDEADYYCAAWDDSLNGLVFGTGTKLTVL
modifications: PRSIM_67
B3: PRSIM_23: Tn3 protein specific for HCV NS3/4A PR (S139A):simeprevir complex, SEQ ID NO: 5 (protein)
chain: RLDAPSQIEVKDVTDTTALITWVDPRYDDIWWFELTYGIKDVPGDRTTIKLYLNDPYYSIGNLKPDTEYEVSLISYTGDSYSRSGSNPAKITFKTGL
modifications: PRSIM_23
B4: PRSIM_75: scFv PRSIM binding molecule, SEQ ID NO: 15 (protein)
scFv: EVQLVQSGAEVKKPGSSVKVSCKASGGSFNSYTLDWVRQAPGQGLEWMGGIIPVFGSPNYGQKFQGRVTITADESTSTAYMELSSLKSDDTAVYYCARGLVYQPLDSWGRGTLVTVSSGGGGSGGGGSGGGGSAQAVLTQPSSASGTPGQRVTISCSGSSSNIGSYTVNWYQQFPGTAPKLLIYSNTQRPSGVPDRFSGSKSGTSASLAISGLQSEDEADYYCAAWDDSLNGWVFGGGTKVTVL
modifications: PRSIM_75
B5: PRSIM_57: scFv specific for HCV NS3/4A PR (S139A):simeprevir complex, SEQ ID NO: 12 (protein)
scFv: QVQLVQSGAEVKKPGSSVKVSCKASGGTFSSYAISWVRQAPGQGLEWMGGIIPIFGTANYAQKFQGRVTITADESTSTAYMELSSLRSEDTAVYYCARHTNYITVFDYWGQGTLVTVSSGGGGSGGGGSGGGGSAQSVLTQPPSASGTPGQRVTISCSGSSSNIGSNTVNWYQQLPGTAPKLLIYSNNQRPSGVPDRFSGSKSGTSASLAISGLQSEDEADYYCAAWDHHWEQVVFGGGTKLTVL
modifications: PRSIM_57
B6: PRSIM_04: scFv PRSIM binding molecule, SEQ ID NO: 11 (protein)
scFv: QVQLVQSGAEVKKPGSSVKVSCKASGGTFSSYAISWVRQAPGQGLEWMGGIIPIFGTANYAQKFQGRVTITADESTSTAYMELSSLRSEDTAVYYCARGMAHFYQFDLWGQGTLVTVSSGGGGSGGGGSGGGGSAQSVLTQPPSASGTPGQRVTISCSGSSSNIGSNTVNWYQQLPGTAPKLLIYSNNQRPSGVPDRFSGSKSGTSASLAISGLQSEDEADYYCAAGDHDHEHVVFGGGTKLTVL
modifications: PRSIM_04
B7: PRSIM_72: scFv PRSIM binding molecule, SEQ ID NO: 14 (protein)
scFv: B6 scFv
modifications: PRSIM_72

The first test concerns the target HCV NS3/4A PR (S139A) (Hepatitis C virus subtype 1a, UniProt A8DG50, A1066T/I1043Q/I1044E/L1039E/L1040E/L1047Q/S1165A, form not given). Briefly: HTRF binding screen. The following applies: in the presence of simeprevir. As to the method:
scFv and Tn3 PRSIM binding molecules that were selective for the HCV NS3/4A PR (S139A) were identified in homogeneous time-resolved fluorescence (HTRF®) assays run in parallel to measure binding in the presence and absence of simeprevir. HCV NS3/4A PR (S139A), and serial dilutions of purified PRSIM binding molecules, were prepared in assay buffer (PBS containing 0.4 M potassium fluoride and 0.1% BSA). Streptavidin cryptate (Cisbio) was pre-mixed with either anti-FLAG XL665 (to detect the Tn3 molecules) or anti-c-myc XL665 (to detect the scFv molecules) in assay buffer. For each assay 2.5 μl of sample titration was added to 2.5 μl HCV NS3/4A PR (S139A) and 2.5 μl of pre-mixed detection reagents. Either 2.5 μl simeprevir or 2.5 μl of a DMSO blank were also added to each well. Background was defined using wells with zero sample addition. Assay plates were incubated overnight at 4° C., prior to reading the time resolved fluorescence at 620 nm and 665 nm emission wavelengths using a PerkinElmer Envision plate reader. Data was analysed by calculating % Delta F values for each sample. Delta F was determined according to equation 1.
% Delta F=((sample 665 nm/620 nm ratio value)−(background 665 nm/620 nm ratio value)/(background 665 nm/620 nm ratio value))×100 Equation 1
Selective binding molecules are defined as those scFv and Tn3 PRSIM binding molecules that bind to HCV NS3/4A PR (S139A) in complex with simeprevir and no binding to HCV NS3/4A PR (S139A).
As to B1, the “HTRF max. signal (% delta F)” value is reported as 1704 % delta F.
Consider B2, for which the “HTRF max. signal (% delta F)” value is reported as 1708 % delta F.
Turning to B3, the “HTRF max. signal (% delta F)” value stood at 1573 % delta F.
Still for that read-out and setting: in the case of B4 it was 1030 % delta F; in that of B5, 1076 % delta F; in that of B6, 1055 % delta F.
With B7, the “HTRF max. signal (% delta F)” value is 1107 % delta F.

In the next test the test system is luciferase reporter gene in HEK293 cells. Briefly: Transcriptional regulation assay (split transcription factor), luciferase reporter. The format is cell-based, human. Conditions: PRSIM fused to AD; one copy. From the text: The iDimerize regulated transcription system (Takara) was used to test the ability of PRSIM-based CIDs to regulate gene expression. […] The DBD and AD are separately fused to the two protein components of a CID such that, only in the presence of the small molecule inducer, the AD is brought into close proximity to the DBD, recruiting the transcription machinery to a promoter harbouring the DBD recognition sites. The iDimerize regulated transcription system (Takara) provides two vectors, pHet-Act1-2 and pZFHD1-Luciferase. The pHet-Act1-2 vector encodes two fusion proteins that represent a positive control: one is a fusion between FRB (T82L mutant; DmrC) and an activation domain (AD) from human p65 (SEQ ID NO: 42); the other is a fusion protein comprised of a DNA binding domain (ZFHD1) (SEQ ID NO: 43) fused to three tandem copies of FKBP12 (DmrA). These sequences are preceded by a CMV promoter and separated by an internal ribosome entry site (IRES). The ZFHD1 vector encodes luciferase preceded by an inducible promoter consisting of 12 copies of the recognition sequence of the ZFHD1 DBD upstream of a minimal IL-2 promoter. Binding of the DBD to its recognition sequence and recruitment of the transcriptional machinery by the AD initiates transcription of the luciferase reporter gene. The DNA sequence encoding HCV NS3/4A PR (S139A) was purchased as a DNA string from GeneArt and cloned into the pHet-Act1-2 vector as either an N-terminal fusion partner to the activation domain (SEQ ID NO: 44) (replacing FRB) or as a C-terminal fusion partner to the DNA binding domain (SEQ ID NO: 45) (replacing FKBP12) with flexible linkers (TGGGGSGGGGS (SEQ ID NO: 185) and SA, respectively) between the fusion partners. Subsequently, sequences encoding one copy of a panel of 12 PRSIM molecules (Table 2) were purchased as DNA strings from GeneArt and were cloned using Gibson assembly into the HCV NS3/4A PR (S139A)-containing pHetAct1-2 constructs described above, as a fusion partner to either the DBD (SEQ ID NOS: 46-56) or AD (SEQ ID NOS: 57-67), respectively. An equivalent construct was generated to replace the three copies of FKBP12 in pHet-Act1-2 with a single copy of FKBP12. The sequence of the constructs encoding both activation domain and DNA-binding domain fusion proteins was confirmed by Sanger sequencing of the entire coding region.
Sequences encoding the three HCV NS3/4A PR (S139A) mutants (Table 6) were purchased as DNA strings from GeneArt and were cloned using Gibson assembly into the pHetAct1-2 HCV NS3/4A PR (S139A)-PRSIM_23 (3 tandem copy) construct described above as a fusion partner to the AD (SEQ ID NOs: 211-216).
All transcriptional regulation assays were performed in adherent HEK293 cells cultured in 384-well plates. Cells enzymatically dissociated from a tissue culture flask were counted and plated at 7.5×10^3 cells/well in a 384-well plate. The plates were incubated overnight at 37° C. with 5% CO2 to allow the cells to adhere. On day 2, the cells were co-transfected with a pHet-Act1-2 plasmid (containing the FRB:FKBP12 control fusion proteins (Clontech) or the HCV NS3/4A PR (S139A):PRSIM fusion proteins) and a pZFHD1 plasmid (encoding either luciferase (Clontech) or NanoLuc-PEST (as described above)) using Lipofectamine LTX (ThermoFisher). On day 3, wells were treated with different concentrations of either A/C heterodimeriser (for the FRB:FKBP12 control), simeprevir or with vehicle control, and 24 hours later luminescence was quantified with an Envision plate reader immediately following addition of SteadyGlo luciferase substrate (Promega) or Nano-Glo Vivazine luciferase substrate (Promega). Alternatively, reverse transfections were carried out on Day 1, addition of dimeriser on Day 2 and luminescence quantified 24 hours later on Day 3.
Luminescence readings were converted into fold-change by dividing the signal in the presence of simeprevir by that in the absence of simeprevir.
Background: In a reporter assay the amount or activity of a reporter protein is the signal.
B1 registered a Max fold change of 2.9.
B2: the Max fold change was 87.1.
As for B3, the Max fold change was 106 and 106.67.
B4 registered a Max fold change of 40.67.
Regarding B5, the Max fold change came to 10.73.
For B6, the Max fold change stood at 6.9.
B7 gave a Max fold change of 2.2.

Still in this test, the particulars now being: PRSIM fused to AD; one copy; simeprevir dose-response; read-out: EC50.
Take B1: the half-maximal effective concentration (EC50) came out at 82.4 nM.
On the same count and under the same terms, the same measure for B2: 4.97 nM; for B3: 2.82 nM; for B4: 2.17 nM.
Take B5: the EC50 amounted to 3.21 nM.
For B6, the 50% effective concentration (EC50) was 159000 nM.
On the same count and under the same terms, in the case of B7 it was 4.84 nM.

The test is the same for the next values; noted with them: PRSIM fused to DBD; one copy.
Molecule B1 displayed a Max fold change of 33.14.
With B2, the Max fold change stood at 1.
With B3, the Max fold change is 88 and 88.8.
Take B4: the Max fold change worked out at 9.4.
Take B5: the Max fold change was 146 and 146.6.
Still for that read-out and setting: the same measure for B6: 1.364.
Still for that read-out and setting: the same measure for B7: 1.4.

Staying with this test, now noted: PRSIM fused to DBD; one copy; simeprevir dose-response; read-out: EC50.
On to B1, for which the EC50 was 12.8 nM.
Turning to B2, the 50% effective concentration (EC50) amounted to 2.05 nM.
B3: the EC50 was 2.47 nM.
Same read-out and setting: the same measure for B4: 2.67 nM; for B5: 3.54 nM; for B6: 6.55 nM.
Turning to B7, the EC50 came out at 33 nM.

Staying with this test, now noted: direct comparison of DBD-PRSIM constructs with FRB:FKBP12:rapalog positive control.
For the molecule B3, the “fold increase in luciferase expression” value is 100 fold.
Consider B5, for which the “fold increase in luciferase expression” value stood at 100 fold.

The test is the same for the next values; noted with them: firefly luciferase; one copy of PRSIM_23 fused to DBD.
B3 showed a max fold change of 364.5.

Staying with this test, now noted: firefly luciferase; three tandem PRSIM_23 fused to DBD.
In turn, B3 registered a max fold change of 4862 fold.

Staying with this test, now noted: firefly luciferase; two tandem PRSIM_23 fused to DBD.
In turn, B3 had a max fold change of 2436.

The same test, now with this note: fusion orientation not stated; read-out: EC50.
Consider B3, for which the EC50 is 2 nM.

By EC50 is commonly meant the concentration giving half of the maximal effect.
